Earlier results on one substance are cited in article PMC10990137.

The target in this data set is IGF2R domain 11 (Homo sapiens) (UniProt P11717). Conditions: cited from earlier work.
Chain of IGF2R domain 11 (Homo sapiens) (P11717 1508-1650): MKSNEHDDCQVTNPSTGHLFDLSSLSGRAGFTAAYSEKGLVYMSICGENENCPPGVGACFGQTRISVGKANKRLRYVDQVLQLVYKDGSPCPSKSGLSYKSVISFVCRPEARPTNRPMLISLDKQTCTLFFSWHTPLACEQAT

Chain of IGF2 (P01344 25-91): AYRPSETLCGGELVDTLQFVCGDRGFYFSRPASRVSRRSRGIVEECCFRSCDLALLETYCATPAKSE

As for IGF2 (from UniProt P01344), the Kd is 4.5 nM.
